Results on nine molecules are retold here after paper PMC10724200, “A peptide derived from interleukin-10 exhibits potential anticancer activity and can facilitate cell targeting of gold nanoparticles loaded with anticancer therapeutics” (Communications Chemistry, 2023).

On the set-up of series [1]: method as in 2 sources, ref 40 = [40]; PMID 22211087; doi:10.7150/ijms.9.33; 40. Kadoyama K Adverse event profiles of 5-fluorouracil and capecitabine: data mining of the public version of the FDA adverse event reporting system, AERS, and reproducibility of clinical observation ||| ref 49 = [49]; 49. Casale, J. & Patel, P. Fluorouracil [Updated 2022 Nov 24]. In StatPearls. (StatPearls Publishing, Treasure Island (FL), 2023). Particulars: cited from earlier work. From the text: 5-FU is a cytotoxic chemotherapeutic drug used in the treatment of a variety of cancers, including breast cancer. […] The gold nanoparticles fabricated in this study may be used as a delivery material to deliver 5-FU into cancer cells. Here, we loaded 5-FU onto NK20a/Poly A15@Au and Poly A15@Au nanoparticles. […] It works by inhibiting the normal synthesis of thymidine by incorporating 5-FU metabolites into DNA and RNA, eventually leading to the arrest of synthetic pathways and subsequent apoptosis of treated cells[47],[48]. 5-FU is typically administered via intravenous injection. Infusions of 5-FU can be rapidly […] through the circulatory system, and prolonged administration of 5-FU is required to maintain a high level of 5-FU in the body, thereby enhancing clinical efficacy. However, its nonspecific toxicity, ...

Series [2] concerns BT-474 breast cancer cells. Put plainly: Therapeutic efficacy: cell viability (CCK-8), BT-474 breast cancer cells. Format: cell-based, human. The source says: 5-FU is a cytotoxic chemotherapeutic drug used in the treatment of a variety of cancers, including breast cancer. […] The gold nanoparticles fabricated in this study may be used as a delivery material to deliver 5-FU into cancer cells. Here, we loaded 5-FU onto NK20a/Poly A15@Au and Poly A15@Au nanoparticles.

For series [3], the target named is T1, recombinant receptor human IL-10Ra protein (Homo sapiens, UniProt Q13651).
T1 sequence (Q13651 22-578): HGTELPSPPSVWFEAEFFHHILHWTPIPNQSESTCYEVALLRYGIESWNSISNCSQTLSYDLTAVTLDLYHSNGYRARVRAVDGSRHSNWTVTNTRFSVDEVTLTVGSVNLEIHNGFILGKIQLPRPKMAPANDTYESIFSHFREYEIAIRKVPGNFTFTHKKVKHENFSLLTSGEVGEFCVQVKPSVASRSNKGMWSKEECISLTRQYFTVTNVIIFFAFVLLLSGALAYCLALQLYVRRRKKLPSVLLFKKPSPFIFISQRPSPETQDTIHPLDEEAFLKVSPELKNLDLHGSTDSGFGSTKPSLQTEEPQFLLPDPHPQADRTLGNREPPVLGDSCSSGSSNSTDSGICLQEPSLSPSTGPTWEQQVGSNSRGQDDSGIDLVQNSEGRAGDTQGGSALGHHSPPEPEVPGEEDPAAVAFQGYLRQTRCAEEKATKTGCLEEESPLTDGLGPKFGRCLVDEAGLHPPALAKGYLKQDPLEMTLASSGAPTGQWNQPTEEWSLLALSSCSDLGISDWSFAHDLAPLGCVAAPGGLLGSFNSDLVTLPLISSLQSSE
The experiment in a line: Biolayer interferometry kinetic assay, binding to IL-10Ra. Particulars: for kon: read-out: ka (association constant). How it is done: Biolayer interferometry (BLI) was applied to analyze peptide–receptor protein interactions. BLI was performed with a ForteBio Octet RED96e System (Sartorius AG, Göttingen, Germany) by using high-precision streptavidin and biosensors. The biosensors were hydrated in a plate for 15 min and then loaded with 10 μg/mL recombinant receptor human IL-10Ra protein and incubated for 150 s. […] After the association step, the biosensor was shifted to the dissociation buffer, phosphate-buffered saline (PBS) with 0.05% Tween20, for dissociation. Dissociation was recorded until equilibrium was reached (120 s).
To measure the binding ability of the designed and negative control peptides (NM25, NK20, NK20a, and control scramble peptide CG20) to the receptor IL-10Ra in vitro, BLI experiments were performed. […] When binding with IL-10Ra, the association constant (ka) of NK20 and NK20a was 1.02 × 10^4 (1/Ms) and 8.14 × 10^3 (1/Ms), respectively. The ka values of the refined peptides were approximately 12-fold higher than that of NM25. […] The equilibrium dissociation constant (KD) of NK20a interactions with IL-1R1was approximately 2000 times greater than that with IL-10Ra, and the calculated dissociation constant of NK20a interactions with IL-1R1 was to be 5000 times greater than that with IL-10Ra interactions (Table 2). […] As a result, NK20a was used for further investigations in this study.
Fig. 3 BLI kinetic assays of the designed peptides binding to the receptor IL-10Ra. Wavelength shift curves show the association and dissociation of the designed peptides (a) NM25, (b) NK20, (c) NK20a, (d) CG20 binding to the IL-10 receptor, and (e) NK20a binding to a control receptor IL-1R1 at various concentrations. Dissociation was recorded at 120 s after the binding started (black dotted line).
(In BLI a coated tip is dipped into the sample, and binding shifts an interference pattern.)

A further series relates to BJAB B-lymphoma cells. Put plainly: Cell viability assay (CCK-8), B-lymphoma cells. Type of series: cell-based. Particulars: 50 μg/mL NK20a and/or 10 ng/mL IL-10, 48 h, triplicate. The protocol:
BJAB B-lymphoma cell lines were cultured in RPMI 1640 medium supplemented with 10% fetal bovine serum. RAW 264.7 macrophage and BT-474 human breast tumor cell lines were cultured in Dulbecco’s Modified Eagle Medium (DMEM) supplemented with 10% fetal bovine serum, 1% L-glutamine, 100 U/ml penicillin, 100 U/ml streptomycin, and sodium pyruvate. The cells were incubated at 37 °C in a 5% CO2 atmosphere.
For the cell viability assay, B-lymphoma cells were cultured in 96-well plates at a density of 3 × 10^3 cells/well for 24 h. The cells were then treated with 10 ng/mL IL-10 and 50 μg/mL NK20a, and further incubated for 48 h. After incubation, 10 μL of Cell Counting Kit-8 (CCK-8; Enzo Life Sciences, NY, USA) reagent was added, and the cells were incubated at 37 °C for 1 h. Cell viability was quantified by measuring the absorbance at 450 nm by using an ELISA plate reader (CLARIOstar Plus, BMG Labtech, Ortenberg, Germany).
Fig. 4 In vitro binding assay and cytotoxicity study. a B-lymphoma cells were treated with NK20a, and the fluorescence of the treated cells was analyzed through flow cytometry to determine the binding ability of NK20a to the cell surface. The fluorescence distribution of FITC was categorized as treated with NK20a (green) and untreated (red). b Bar chart showing the cell viability of the B-lymphoma cell line treated with 10 ng/mL IL-10, 50 μg/mL NK20a, and both, respectively. […]

The test system of a further series is RAW 264.7 macrophages. Put plainly: Atomic force microscopy of macrophage morphology / activation. Conditions: RAW 264.7, AFM; LPS 10 ng/mL, IL-10 10 ng/mL, NK20a 50 μg/mL pretreatment 30 min with LPS; fixed after 24 h. Format: cell-based. How it is done:
Cell morphology was evaluated through atomic force microscopy (AFM) to observe the effects of the peptide on the cells. For AFM experiments, RAW 264.7 macrophages (5 × 10^4 cells/mL) were seeded on coverslips that had been treated with HCl to facilitate cell attachment. The cells were treated with lipopolysaccharides (LPS), NK20a, or IL-10 and incubated at 37 °C. After 24 h of incubation, the medium was removed, and the cells were washed twice with PBS. The cells were then fixed with 4% glutaraldehyde for 40 min. Finally, the fixation solution was removed, the samples were gently washed three times with Milli Q water, and then the samples were dried in a desiccator for 3 h. Cell morphology was imaged using an AFM instrument (Nanowizard, JPK BioAFM, Bruker Nano GmbH, Berlin, Germany). […] The AFM probes used were oxide-sharpened silicon nitride (Si3N4) probes (OMCL-TR400PB-1, Olympus, Tokyo, Japan) with a spring constant of 0.02 N/m. The SPM image processing software package version 3.1.6 (JPK BioAFM, Bruker Nano GmbH, Berlin, Germany) was used for processing and analysis of AFM image data.
Macrophages play a key role in tumor cell clearance. […] In this study, we examined the ability of NK20a to inhibit the anti-inflammatory effects of IL-10 on macrophages. The RAW 264.7 macrophage cell line was used in the evaluation, and the activation of macrophage cells was visualized through AFM. […]

Series [4] addresses T2, recombinant receptor human IL-10Ra protein (human, UniProt Q13651 22-235).
T2 chain: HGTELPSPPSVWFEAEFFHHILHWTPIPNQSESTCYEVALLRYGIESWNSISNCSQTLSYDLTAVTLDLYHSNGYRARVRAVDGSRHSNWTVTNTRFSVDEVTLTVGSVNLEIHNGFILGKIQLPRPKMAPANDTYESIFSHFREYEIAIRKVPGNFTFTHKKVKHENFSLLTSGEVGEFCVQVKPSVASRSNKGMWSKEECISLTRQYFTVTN
The experiment in a line: BLI; steady-state analysis.

The target in series [5] is T3, recombinant receptor human IL-10Ra protein (human, UniProt Q13651 22-235).
T3 construct: Interleukin-10 receptor subunit alpha, human, recombinant; also called IL-10 receptor
T3 sequence (looked up): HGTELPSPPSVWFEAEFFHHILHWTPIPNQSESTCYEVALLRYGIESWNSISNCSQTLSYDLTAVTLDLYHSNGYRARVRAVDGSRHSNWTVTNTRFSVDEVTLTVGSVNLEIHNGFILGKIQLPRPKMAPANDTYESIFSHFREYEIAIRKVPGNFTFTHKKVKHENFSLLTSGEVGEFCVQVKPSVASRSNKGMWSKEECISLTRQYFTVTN
Put plainly: BLI; ForteBio Octet RED96e, streptavidin biosensors loaded with 10 μg/mL recombinant human IL-10Ra (150 s); peptides at 3.12-100.0 μM, association 120 s; dissociation 120 s in PBS with 0.05% Tween20. Particulars: both partners purified.

For another series, the target named is receptor IL-1R1 (UniProt P14778 18-569, Source and limits not given; taken as the recombinant extracellular domain (UniProt topological domain 18-336) by convention. Human inferred from the human IL-10Ra used in the same BLI assay. Likely). Put plainly: BLI; control receptor IL-1R1 in place of IL-10Ra; NK20a at various concentrations. Particulars: both partners purified.

Where [6] appears, read: BLI kinetic, human IL-10Ra, peptides 3.12-100.0 μM, association 120 s.

“Also recorded” adds a separate entry of the source. Ends that are not written are not given here.

Chain of receptor IL-1R1 (P14778 18-569): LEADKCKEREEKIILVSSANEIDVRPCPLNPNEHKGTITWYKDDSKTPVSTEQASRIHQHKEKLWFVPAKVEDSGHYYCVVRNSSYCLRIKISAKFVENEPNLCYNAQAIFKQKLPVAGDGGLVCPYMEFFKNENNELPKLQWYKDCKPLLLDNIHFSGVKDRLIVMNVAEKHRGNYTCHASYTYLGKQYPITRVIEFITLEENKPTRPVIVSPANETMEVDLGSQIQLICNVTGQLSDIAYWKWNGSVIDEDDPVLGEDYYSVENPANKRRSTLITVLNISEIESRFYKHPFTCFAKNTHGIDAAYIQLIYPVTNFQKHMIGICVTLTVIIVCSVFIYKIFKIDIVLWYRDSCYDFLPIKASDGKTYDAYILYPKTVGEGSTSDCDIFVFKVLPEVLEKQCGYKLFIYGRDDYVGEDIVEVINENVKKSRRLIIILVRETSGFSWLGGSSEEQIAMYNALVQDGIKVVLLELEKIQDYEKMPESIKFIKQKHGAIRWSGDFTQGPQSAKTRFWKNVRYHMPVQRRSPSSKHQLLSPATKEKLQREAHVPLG

Consider `O=c1[nH]cc(F)c(=O)[nH]1` [5-FU, 5-fluorouracil], for which, in series [1], the “membrane permeability (in words)” value is given as “poor membrane permeability”; the “membrane permeability / half-life in plasma (in words)” value was “poor membrane permeability, and short half-life in plasma”. Also, the survival rate result in series [2] (BT-474, free 5-FU at 80 μM, 72 h, CCK-8) is “more than 70%”. For the same molecule, the “cell survival / therapeutic effect on BT-474 (in words)” value in series [2] (CCK-8, 72 h, 5-FU free up to 80 μM) is on record as “did not exhibit a significant therapeutic effect against the breast cancer cells”.

With “CPLNGSTVYGHLRHCLSCSG [CG20, random, control scramble peptide, reference compound]”, the “binding to IL-10Ra (in words)” value in series [3] (BLI) is listed as “not able to bind to IL-10Ra”.

For “IL-10: immune regulatory cytokine with strong anti-inflammatory activity”, the “kd (dissociation constant)” value in series [3] (BLI kinetic, human IL-10Ra, dissociation 120 s in PBS with 0.05% Tween20) was less than 1e-07 s⁻¹. Also, the “ka (association constant)” value in series [3] (setting [6]) was found to be 224000 M⁻¹ s⁻¹. In addition, in the series on BJAB B-lymphoma cells, the “cell proliferation / viability (in words)” value is listed as “did not significantly promote the proliferation of lymphoma B cells”. Further, the “macrophage activation, morphology (in words)” value in the series with RAW 264.7 macrophages is recorded as “the activation of macrophages was suppressed; also recorded: inhibited the inflammation of LPS-stimulated cells”.

In the case of NMLRDLRDAFSRVKTFFQMK [NK20], in series [3] (setting [6]), the kon is 10200 M⁻¹ s⁻¹.

For NMLRDLRDAFSRVKTFFQMKDQLDN [NM25], the kon in series [3] (setting [6]) is 832 M⁻¹ s⁻¹.

B1: NM25 peptide (peptide)
peptide: NMLRDLRDAFSRVKTFFQMKDQLDN
notes: human IL-10; also called original peptide; source: synthetic peptide (GeneMark, GMbiolab Co., solid-phase)
A word on the Kd: it is the concentration at which binding is half-saturated. A word on the koff: it is the first-order rate constant of dissociation. As for B1, the dissociation constant (Kd) in series [4] was found to be 0.55 µM; in series [5] it was 41 µM. The off-rate (koff) in series [5] amounted to 0.0341 s⁻¹.

B2: NK20 peptide (peptide)
peptide: NMLRDLRDAFSRVKTFFQMK
notes: truncation of NM25 (five C-terminal residues removed); stretch of human IL-10; source: synthetic peptide (GeneMark, GMbiolab Co., solid-phase)
As to B2, the equilibrium dissociation constant (Kd) in series [4] was determined as 0.26 µM. Also, in series [5], the Kd was found to be 21.4 µM and the koff turned out to be 0.218 s⁻¹.

B3: NK20a peptide (peptide)
peptide: NMLRNLRNAFSRVKTFFQMK
notes: NK20 with two Asp replaced by Asn; stretch of human IL-10; source: synthetic peptide (GeneMark, GMbiolab Co., solid-phase)
Take B3: the equilibrium dissociation constant (Kd) in series [4] came out at 0.15 µM; in series [5], 11.2 µM; in the series with receptor IL-1R1 it was 28000 µM. Also, the off-rate (koff) in series [5] amounted to 0.0909 s⁻¹; with receptor IL-1R1, 512 s⁻¹.

B4: Human interleukin-10 (IL-10) (ligand, UniProt P22301 19-178, looked up)
chain: SPGQGTQSENSCTHFPGNLPNMLRDLRDAFSRVKTFFQMKDQLDNLLLKESLLEDFKGYLGCQALSEMIQFYLEEVMPQAENQDPDIKAHVNSLGENLKTLRLRLRRCHRFLPCENKSKAVEQVKNAFNKLQEKGIYKAMSEFDIFINYIEAYMTMKIRN
notes: Interleukin-10, human; the methods of the BLI describe only the peptides as analytes; also called IL-10 cytokine
Consider B4, for which the Kd in series [4] is 1 µM. In series [5], the Kd was less than 1e-06 µM, the koff is less than 1e-07 s⁻¹ and the kon came to 224000 M⁻¹ s⁻¹.
